Measured values reported in the supplement of paper PMC10567573.

B1: ZNF207 (parent)
chain: CHICHKKLYTGPGLAIHCMQVHKE
B2: CDC25A (parent)
chain: TVAGKHQDLKYISPEIMASVLNGK

Variants of: B1
Test: protein stability index of a GFP-peptide fusion (GPS, HEK-293T) (PSI 1-6); higher = more stable
Details: c terminus: a fixed tail appended
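Also: lentivirally expressed fusions sorted by FACS into six bins by GFP to DsRed ratio, PSI derived from sequencing read proportions per bin multiplied by bin number.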

Protein stability index: each site, then its substitutions
C1: L 1.94, K 2.16, S 2.58, Q 1.8, M 2.03, A 2.02, E 2.76, D 2.78, G 2.07, N 2.24, P 2.69, I 1.52, Y 2.84, T 1.94, H 1.83, R 3
K6: L 2.36, E 4.41, H 3.51, G 3.03, P 2.12, S 3.54, M 3.35, Y 2.72, R 3.97, T 2.15, W 2.17, C 3.45, I 2.63, V 3.41, Q 4.09, D 3.28, A 4.37, F 1.84, N 3.25
H5: S 2.83, D 3.49, T 2.48, E 3.63, G 3.35, C 2.4, K 2.55, R 2.96, Q 2.79, N 3.18, F 3.26, M 3.33, Y 2.97, P 2.39, I 2.03, W 2.74, V 1.63, L 3.01, A 3.83
C4: R 1.94, W 1.88, H 1.6, E 1.07, M 2.12, N 1.9, A 1.36, T 1.5, P 2.5, L 1.39, G 1.7, Q 2.01, Y 2.04, F 1.93, S 1.38, I 3.16, K 1.15, D 1.6
I3: F 2.34, C 2.54, H 3.67, G 2.48, V 2.51, L 3.09, A 2.17, T 3.03, N 2.19, E 2.37, M 2.73, Q 2.44, P 1.99, K 3.1, Y 3.43, W 2.73, R 2.52, S 2.58, D 2.24
L8: E 3.96, G 3.61, C 3.16, A 2.33, D 3.37, H 3.14, F 2.44
K7: N 4.21, L 4.3, T 3.98, M 3.86, W 3.27, I 3.73, Q 4.11, Y 4.2, S 3.66, H 3.25, P 2.55, C 3.63, A 3.92, V 4.09, R 3.48, D 4.16, F 4.02, G 3.27, E 4.14
H2: N 3.65, C 2.45, L 2.78, R 2.59, W 2.61, V 2.44, F 2.76, Q 3.4, I 2.46, K 2.91, E 3.07, P 2.9, G 3.31, T 2.87, M 2.49, Y 2.74, D 4.28, A 2.71, S 2.73

Variants of: B2
Test: as above
Details: c terminus: a fixed tail appended

Protein stability index: each site, then its substitutions
P14: W 2.13, Q 2.87, Y 2.79, S 2.55, N 3.29, T 2.55, V 2.7, R 2.91
L21: H 4.05, E 4.02, D 4.05, V 3.54, G 3.83, P 4.08, A 3.83, W 3.17, S 3.8, K 4.25, F 3.16, N 3.65, Q 4, Y 3.18, T 3.84, R 3.7, M 3.4, C 3.54, I 3.35
V20: E 4.1, Y 2.72, N 3.38, Q 3.68
